Results taken from patent US20260130997A1 (BEAM THERAPEUTICS, published 2026).

Tests used:
[1] = target: T1, mutant CD45 D1-D2 protein N263G, T264A (Homo sapiens, UniProt P08575 225-394, limits assumed); assay: binding to mutant CD45 D1-D2 protein relative to WT CD45 D1-D2; method not given
T1 chain: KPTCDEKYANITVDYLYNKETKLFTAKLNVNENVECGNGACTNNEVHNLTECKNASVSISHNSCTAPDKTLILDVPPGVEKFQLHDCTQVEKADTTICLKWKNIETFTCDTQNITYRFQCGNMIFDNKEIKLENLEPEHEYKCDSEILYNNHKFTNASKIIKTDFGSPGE

[2] = target: T2, mutant CD45 D1-D2 protein N267G, N268G (Homo sapiens, UniProt P08575 225-394, limits assumed); assay: as above
T2 chain: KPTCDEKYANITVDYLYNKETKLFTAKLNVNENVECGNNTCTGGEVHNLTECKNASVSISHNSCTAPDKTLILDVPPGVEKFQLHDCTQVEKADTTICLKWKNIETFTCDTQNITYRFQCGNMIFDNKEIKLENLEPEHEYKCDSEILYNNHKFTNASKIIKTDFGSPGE

[3] = target: T3, mutant CD45 D1-D2 protein E259G, N262D (Homo sapiens, UniProt P08575 225-394, limits assumed); assay: as above
T3 chain: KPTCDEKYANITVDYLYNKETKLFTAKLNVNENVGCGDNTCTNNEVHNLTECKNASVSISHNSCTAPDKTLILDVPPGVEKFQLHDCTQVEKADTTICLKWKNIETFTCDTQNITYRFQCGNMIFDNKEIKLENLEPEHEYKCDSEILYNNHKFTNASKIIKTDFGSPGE

[4] = target: T4, mutant CD45 D1-D2 protein N263S, T264A (Homo sapiens, UniProt P08575 225-394, limits assumed); assay: as above
T4 chain: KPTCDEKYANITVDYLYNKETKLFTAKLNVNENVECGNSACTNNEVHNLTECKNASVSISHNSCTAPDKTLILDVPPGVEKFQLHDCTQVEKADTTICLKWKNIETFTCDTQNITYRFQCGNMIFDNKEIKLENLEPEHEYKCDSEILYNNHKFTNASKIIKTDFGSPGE

[5] = target: T5, mutant CD45 D1-D2 protein N286G (Homo sapiens, UniProt P08575 225-394, limits assumed); assay: as above
T5 chain: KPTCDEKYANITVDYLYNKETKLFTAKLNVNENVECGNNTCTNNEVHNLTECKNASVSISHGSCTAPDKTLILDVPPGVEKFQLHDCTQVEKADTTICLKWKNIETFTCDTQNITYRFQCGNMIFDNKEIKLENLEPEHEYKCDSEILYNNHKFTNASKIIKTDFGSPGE

[6] = target: T6, purified CD45 protein N257D (Homo sapiens, UniProt P08575 225-394, limits assumed); assay: biosensor; 100 nM mAb030-9 captured with Anti-Human IgG Fc Capture (AHC), 300 nM purified CD45 protein
T6 construct: Purified CD45 variant of the biosensor assay
T6 chain: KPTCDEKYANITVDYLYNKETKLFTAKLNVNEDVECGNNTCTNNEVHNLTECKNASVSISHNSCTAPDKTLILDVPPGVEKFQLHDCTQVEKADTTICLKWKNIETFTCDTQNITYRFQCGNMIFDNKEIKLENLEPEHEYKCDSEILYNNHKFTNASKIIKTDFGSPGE
Description: (§1) 300 nM of purified CD45 protein was contacted with the immobilized antibody. At 300 s the biosensor was placed in buffer without purified CD45 protein.

[7] = target: T7, purified CD45 protein N257G (Homo sapiens, UniProt P08575 225-394, limits assumed); assay: as above
T7 construct: Purified CD45 variant of the biosensor assay
T7 chain: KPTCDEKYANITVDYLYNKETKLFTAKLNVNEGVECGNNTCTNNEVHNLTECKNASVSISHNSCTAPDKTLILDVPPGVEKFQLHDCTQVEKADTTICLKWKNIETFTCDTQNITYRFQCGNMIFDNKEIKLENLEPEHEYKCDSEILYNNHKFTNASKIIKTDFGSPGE
Description: as §1

[8] = target: T8, purified CD45 protein E256G (Homo sapiens, UniProt P08575 225-394, limits assumed); assay: as above
T8 construct: Purified CD45 variant of the biosensor assay
T8 chain: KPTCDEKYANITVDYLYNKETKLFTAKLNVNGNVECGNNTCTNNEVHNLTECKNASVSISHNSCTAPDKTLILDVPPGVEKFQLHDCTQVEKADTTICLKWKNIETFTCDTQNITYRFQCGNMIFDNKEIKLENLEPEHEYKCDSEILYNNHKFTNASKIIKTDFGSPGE
Description: as §1

[9] = target: T9, purified CD45 protein N267G (Homo sapiens, UniProt P08575 225-394, limits assumed); assay: as above
T9 construct: Purified CD45 variant of the biosensor assay
T9 chain: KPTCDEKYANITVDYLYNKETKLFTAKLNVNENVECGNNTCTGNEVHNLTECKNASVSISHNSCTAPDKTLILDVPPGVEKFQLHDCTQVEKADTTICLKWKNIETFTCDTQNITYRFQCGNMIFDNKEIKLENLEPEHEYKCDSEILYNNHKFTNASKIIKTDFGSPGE
Description: as §1

[10] = target: T10, purified CD45 protein N286D (Homo sapiens, UniProt P08575 225-394, limits assumed); assay: as above
T10 construct: Purified CD45 variant of the biosensor assay
T10 chain: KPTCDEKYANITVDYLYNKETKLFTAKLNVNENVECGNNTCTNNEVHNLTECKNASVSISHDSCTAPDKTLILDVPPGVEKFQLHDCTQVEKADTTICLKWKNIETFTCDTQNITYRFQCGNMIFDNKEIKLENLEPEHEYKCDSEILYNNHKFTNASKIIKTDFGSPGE
Description: as §1

% Mutant Binding [1]: 106% | % Mutant Binding [2]: 1.3% | % Mutant Binding [3]: 2.3% | % Mutant Binding [4]: 122% | % Mutant Binding [5]: 81.5% | response [6]: < 0.05 nm | response [7]: < 0.05 nm | response [8]: < 0.05 nm | response [9]: < 0.05 nm | response [10]: < 0.05 nm
B1: mAb U139AGL030-9 (mAb030-9) (antibody, mouse IgG1, kappa, V domains shown)
VH: EVKLLESGGGLVQPGGSLKLSCAASGFDFSRYWMSWVRQAPGKGLEWIGEINPTSSTINFTPSLKDKVFISRDNAKNTLYLQMSKVRSEDTALYYCARGNYYRYGDAMDYWGQGTSVTVSS
VL: DIALTQSPASLAVSLGQRATISCRASKSVSTSGYSYLHWYQQKPGQPPKLLIYLASNLESGVPARFSGSGSGTDFTLNIHPVEEEDAATYYCQHSRELPFTFGSGTKLEIKR
notes: In the biosensor assay the antibody was captured with Anti-Human IgG Fc Capture (AHC); also called mAb30-9; mAb039-9
